According to patent US20150315280A1 (Chugai, published 2015):

Target: T1, mouse NR 10 (mouse, UniProt Q8K5B1 19-716)
T1 construct: In the proliferation assays it is expressed on Ba/F3 cells together with mouse OSMR, with which it forms the IL-31 receptor; also called mNR 10; IL-31RA
T1 sequence: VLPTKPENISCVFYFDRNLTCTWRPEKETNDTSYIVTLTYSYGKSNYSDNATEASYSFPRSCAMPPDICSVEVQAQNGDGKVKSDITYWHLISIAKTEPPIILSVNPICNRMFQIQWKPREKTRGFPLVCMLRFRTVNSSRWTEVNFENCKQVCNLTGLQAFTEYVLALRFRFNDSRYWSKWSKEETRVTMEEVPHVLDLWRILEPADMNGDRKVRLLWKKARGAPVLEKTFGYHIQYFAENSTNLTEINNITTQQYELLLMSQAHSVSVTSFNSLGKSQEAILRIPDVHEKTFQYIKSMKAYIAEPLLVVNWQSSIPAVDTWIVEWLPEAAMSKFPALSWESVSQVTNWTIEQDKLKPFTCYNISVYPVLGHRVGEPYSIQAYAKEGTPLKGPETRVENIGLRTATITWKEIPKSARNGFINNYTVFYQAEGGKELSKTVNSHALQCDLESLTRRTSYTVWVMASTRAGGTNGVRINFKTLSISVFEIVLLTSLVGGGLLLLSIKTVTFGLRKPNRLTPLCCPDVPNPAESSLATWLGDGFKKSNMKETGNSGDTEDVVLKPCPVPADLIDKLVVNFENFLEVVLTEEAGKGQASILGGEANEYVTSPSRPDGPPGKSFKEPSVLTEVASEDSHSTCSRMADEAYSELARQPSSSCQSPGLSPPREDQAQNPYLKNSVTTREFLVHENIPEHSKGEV
Assay: immunohistochemical staining of auricles of chronic dermatitis model mice
Description: The expression of human NR 10 was reported to be enhanced in thickened epidermis of atopic dermatitis patients (Non-patent Document 1). Auricles of the above-described chronic dermatitis model mice were immunohistochemically stained.

binding result: binds
B1: BM095 in which the constant region was replaced with that of human IgG (antibody, V domains shown)
VH: not shown
VL: LPVLTQPPSVSVAPGQTARITCGGNNIGSKTVYWYQQEPGQAPVLVVYDDTDRPAGIPERFSGANSGNTATLTISRVEAGDEADYYCQVWDSSTDHGVFGGGTKLTVLG
